Data as given in IntAct's records for PubMed 16977309.

Legend:
gga3_human GGA3 = molecular target: T1, gga3_human GGA3 (UniProt Q9NZ52)
T1 sequence: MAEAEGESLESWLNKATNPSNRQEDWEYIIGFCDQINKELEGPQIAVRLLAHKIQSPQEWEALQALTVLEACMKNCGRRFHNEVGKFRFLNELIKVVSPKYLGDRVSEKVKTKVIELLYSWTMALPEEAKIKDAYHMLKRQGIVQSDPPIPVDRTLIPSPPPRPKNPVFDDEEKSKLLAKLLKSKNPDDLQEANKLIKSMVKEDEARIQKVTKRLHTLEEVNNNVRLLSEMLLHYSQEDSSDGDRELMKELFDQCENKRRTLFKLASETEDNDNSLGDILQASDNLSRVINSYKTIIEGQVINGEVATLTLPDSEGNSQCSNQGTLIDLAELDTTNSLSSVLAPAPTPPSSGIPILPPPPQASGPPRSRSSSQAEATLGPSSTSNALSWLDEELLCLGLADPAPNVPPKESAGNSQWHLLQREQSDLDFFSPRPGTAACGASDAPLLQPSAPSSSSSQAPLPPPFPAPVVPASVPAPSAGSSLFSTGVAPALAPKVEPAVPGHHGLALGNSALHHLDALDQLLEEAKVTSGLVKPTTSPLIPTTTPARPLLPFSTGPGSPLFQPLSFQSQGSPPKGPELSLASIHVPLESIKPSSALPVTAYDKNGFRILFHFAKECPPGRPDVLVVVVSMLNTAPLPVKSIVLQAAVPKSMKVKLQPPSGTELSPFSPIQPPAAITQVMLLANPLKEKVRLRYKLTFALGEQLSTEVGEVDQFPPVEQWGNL

csk21_rat Csnk2a1 = csk21_rat Csnk2a1 (UniProt P19139)
csk21_rat Csnk2a1, sequence (P19139 whole entry, looked up): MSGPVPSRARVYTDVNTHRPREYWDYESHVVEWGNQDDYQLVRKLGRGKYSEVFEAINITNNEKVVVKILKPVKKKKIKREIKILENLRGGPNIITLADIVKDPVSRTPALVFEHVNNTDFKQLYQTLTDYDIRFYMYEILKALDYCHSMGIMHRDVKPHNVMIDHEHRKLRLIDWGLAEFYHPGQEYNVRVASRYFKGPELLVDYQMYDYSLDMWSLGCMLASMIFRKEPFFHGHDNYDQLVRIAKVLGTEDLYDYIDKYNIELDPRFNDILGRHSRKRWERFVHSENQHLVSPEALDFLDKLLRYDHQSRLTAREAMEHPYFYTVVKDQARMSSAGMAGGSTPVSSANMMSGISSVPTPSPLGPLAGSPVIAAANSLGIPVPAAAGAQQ

csk2b_human CSNK2B = csk2b_human CSNK2B (UniProt P67870)
csk2b_human CSNK2B, sequence (P67870 whole entry): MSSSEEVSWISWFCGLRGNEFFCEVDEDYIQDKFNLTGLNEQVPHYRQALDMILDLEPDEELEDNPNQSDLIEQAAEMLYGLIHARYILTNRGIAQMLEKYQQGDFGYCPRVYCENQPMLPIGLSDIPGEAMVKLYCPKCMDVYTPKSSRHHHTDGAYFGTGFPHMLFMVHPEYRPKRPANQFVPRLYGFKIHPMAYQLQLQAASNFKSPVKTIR

csk21_human CSNK2A1 = csk21_human CSNK2A1 (UniProt P68400)
csk21_human CSNK2A1, sequence (P68400 whole entry, looked up): as the sequence (P19139 whole entry, looked up) above, with S335G, A337S, G338S, A340P, S378P, I381M counted along it

| effect of a mutation on the interaction (gga3_human GGA3) | effect of a mutation on the interaction (csk21_rat Csnk2a1) | effect of a mutation on the interaction (csk2b_human CSNK2B) | effect of a mutation on the interaction (csk21_human CSNK2A1) | Substance |
| --- | --- | --- | --- | --- |
| disrupting interaction | – | – | – | Phosphofurin acidic cluster sorting protein 1 (Homo sapiens) (from UniProt Q6VY07) K249W |
| – | disrupting interaction strength | disrupting interaction | disrupting interaction | Phosphofurin acidic cluster sorting protein 1 (Homo sapiens) (from UniProt Q6VY07) R196A;R197A;K198A;R199A;Y200A |
| disrupting interaction | – | – | – | Phosphofurin acidic cluster sorting protein 1 (Homo sapiens) (from UniProt Q6VY07) Y251A |
